From FireProtDB (doi:10.1021/bi00118a013)

B1: Guanyl-specific ribonuclease T1, P00651 (parent)
chain: MMYSKLLTLTTLLLPTALALPSLVERACDYTCGSNCYSSSDVSTAQAAGYQLHEDGETVGSNSYPHKYNNYEGFDFSVSSPYYEWPILSSGDVYSGGSPGADRVVFNENNQLAGVITHTGASGNNFVECT

Variants of: B1
Conditions: Aspergillus oryzae (strain ATCC 42149 / RIB 40), pH 7, Fluorescence, MOPS 30 mM, reversible: yes, structure 1RN1, whole UniProt chain shown

Variant | ddG of mutation (higher = less stable) (25 °C, Urea) | denaturant m value (25 °C, Urea) | denaturant midpoint (higher = more stable) (25 °C, Urea) | ddG of mutation (higher = less stable) (50.9 °C, Thermal) | Tm (Thermal) | change of melting temperature, mutant - wild type (higher = more stable) (Thermal) | unfolding enthalpy (van 't Hoff) (Thermal)
MMYSKLLTLTTLLLPTALALPSLVERACDYTCGSNCYSSSDVSTAQAAGYQLHEDGETVGSNSYPHKFNNYEGFDFSVSSPYYEWPILSSGDVYSGGSPGADRVVFNENNQLAGVITHTGASGNNFVECT [Y68F] | -1.14 kcal/mol | 1.17 kcal/mol/M | 6.24 M | -1.15 kcal/mol | 54.3 °C | 3.4 °C | 106 kcal/mol
MMYSKLLTLTTLLLPTALALPSLVERACDYTCGSNCYSSSDVSTAQAAGYQLHEDGETVGSNSYPHKYNNYEGFDFSVSSPYYEWPILSAGDVYSGGSPGADRVVFNENNQLAGVITHTGASGNNFVECT [S90A] | 1.44 kcal/mol | 1.38 kcal/mol/M | 4.11 M | 1.56 kcal/mol |  |  | 
MMYSKLLTLTTLLLPTALALPSLVERACDYTCGSACYSSSDVSTAQAAGYQLHEDGETVGSNSYPHKYNNYEGFDFSVSSPYYEWPILSSGDVYSGGSPGADRVVFNENNQLAGVITHTGASGNNFVECT [N35A] | 0.9 kcal/mol | 1.28 kcal/mol/M | 4.56 M | 0.71 kcal/mol | 48.8 °C | -2.1 °C | 101 kcal/mol
MMYSKLLTLTTLLLPTALALPSLVERACDYTCGSNCYSSSDVATAQAAGYQLHEDGETVGSNSYPHKYNNYEGFDFSVSSPYYEWPILSSGDVYSGGSPGADRVVFNENNQLAGVITHTGASGNNFVECT [S43A] |  |  |  | -0.57 kcal/mol | 52.6 °C | 1.7 °C | 109 kcal/mol
MMYSKLLTLTTLLLPTALALPSLVERACDYTCGSNCYSSSDVSTAQAAGYQLHEDGETVGSNSYPHKYNAYEGFDFSVSSPYYEWPILSSGDVYSGGSPGADRVVFNENNQLAGVITHTGASGNNFVECT [N70A] | 2.08 kcal/mol | 1.3 kcal/mol/M | 3.59 M |  |  |  | 
MMYSKLLTLTTLLLPTALALPSLVERACDYTCGSNCYSSSDVSTAQAAGYQLHEDGETVGSASYPHKYNNYEGFDFSVSSPYYEWPILSSGDVYSGGSPGADRVVFNENNQLAGVITHTGASGNNFVECT [N62A] | -0.03 kcal/mol | 1.31 kcal/mol/M | 5.31 M | 0 kcal/mol | 50.9 °C | 0 °C | 111 kcal/mol
MMYSKLLTLTTLLLPTALALPSLVERACDYTCGSNCYSSSDVSTAQAAGYQLHEDGETVGSNSYPHKYNNYEGFDFSVSSPFYEWPILSSGDVYSGGSPGADRVVFNENNQLAGVITHTGASGNNFVECT [Y82F] | 0.78 kcal/mol | 1.26 kcal/mol/M | 4.65 M | 0.71 kcal/mol | 48.8 °C | -2.1 °C | 99 kcal/mol
MMYSKLLTLTTLLLPTALALPSLVERACDYTCGSNCFSSSDVSTAQAAGYQLHEDGETVGSNSYPHKYNNYEGFDFSVSSPYYEWPILSSGDVYSGGSPGADRVVFNENNQLAGVITHTGASGNNFVECT [Y37F] | 2.11 kcal/mol | 1.27 kcal/mol/M | 3.56 M | 2.03 kcal/mol | 44.9 °C | -6 °C | 101 kcal/mol
MMYSKLLTLTTLLLPTALALPSLVERACDYTCGSNCYSSSDVSTAQAAGYQLHEDGETVGSNSYPHKYNNYEGFDFSVSSPYYEWPILSSGDVFSGGSPGADRVVFNENNQLAGVITHTGASGNNFVECT [Y94F] | 1.36 kcal/mol | 1.32 kcal/mol/M | 4.17 M | 1.35 kcal/mol | 46.9 °C | -4 °C | 89 kcal/mol
MMYSKLLTLTTLLLPTALALPSLVERACDYTCGSNCYSSSDVSTAQAAGYQLHEDGETVGSNSYPHKYNNYEGFDFSVSSPYYEWPILSSGDVYSGGSPGADRVVFAENNQLAGVITHTGASGNNFVECT [N107A] | 2.87 kcal/mol | 1.44 kcal/mol/M | 2.92 M | 2.91 kcal/mol | 42.3 °C | -8.6 °C | 91 kcal/mol
MMYSKLLTLTTLLLPTALALPSLVERACDYTCGSNCYSSSDVSTAQAAGYQLHEDGETVGSNSYPHKYNNYEGFDFSVSSPYFEWPILSSGDVYSGGSPGADRVVFNENNQLAGVITHTGASGNNFVECT [Y83F] | 0.5 kcal/mol | 1.29 kcal/mol/M | 4.88 M | 0.44 kcal/mol |  |  | 
MMYSKLLTLTTLLLPTALALPSLVERACDYTCGSNCYASSDVSTAQAAGYQLHEDGETVGSNSYPHKYNNYEGFDFSVSSPYYEWPILSSGDVYSGGSPGADRVVFNENNQLAGVITHTGASGNNFVECT [S38A] | 1.23 kcal/mol | 1.28 kcal/mol/M | 4.29 M | 1.08 kcal/mol | 47.7 °C | -3.2 °C | 99 kcal/mol
